Results reported in PMC9170038, “Crowdsourced RNA design discovers diverse, reversible, efficient, self-contained molecular switches”.

B1: Eterna 5942428 (Same State NG 3) (ssRNA)
RNA: GUGGUCAGACAUGAGGAUCACCCAUGUGGAAUAAAUAACACACAGGAUAUCAAAUAUAAAAUAUAUGAGAAGGGUGGAUUGGUG
B2: Eterna 7723566 (Exclusion - Tryptophan A) (ssRNA)
RNA: AUGUCGUUAUAGUGAGUGAUGUUCACUGUGCGAGGACCGGUACGGCCGCCACUCGAGAGUGGUGGACACUGAGUCACUCUGACAC
B3: Eterna 7687729 (Same State - FMN B) (ssRNA)
RNA: AUUUUUAACUGAGGAUAUCGAAUUUAUGUAGUGAUGUUACUUUAAAUUAAAAUUUUAAUUUCUUAACGAGAAGGCAGAAUAAUUA
B4: Eterna 7734632 (Exclusion - FMN B) (ssRNA)
RNA: CAUACGCAUGGAGGAUAUGAGAUUUUUCAUAUUAUUUUUUAUUCUCAGUGAUGUUGGGAUUUAUAAUCAGAAGGCCAUGUGUAUG
B5: Eterna 14907 (Exclusion 2) (ssRNA)
RNA: GUGUAGUUAGGAUAUGCUGGAAUCUAGCGAAGCUAGGUUCCACAUGAGGAUCACCCAUGUAGAAGGGACUACAC
B6: Eterna 7714851 (Same State - Theophylline B) (ssRNA)
RNA: AGAACUGUCUGAGAUACCAGCCAGGAAGUGAUGUUUCCAGCUCCACGAAAGUGGAGCCAUGGCCCUUGGCAGCUCAGACAGUUCA
B7: Eterna 7683541 (Same State - FMN B) (ssRNA)
RNA: UAUUAAUUGUCAGGAUAUCGUAAACGAGUGAUGUUCGUAUAUCGACGAUAGUCGAUUCUAUCUAAACGAGAAGGGACAUUAUUUA
B8: Eterna 7722469 (Exclusion - FMN A) (ssRNA)
RNA: AUUUAGACGAGUGAUGUUCGUGUUAUUACAGAGGAUAUGCGUAAUUGCAGAAGGCUGUAUUUAUAUAUGUUAUGUAGUUUUAAAA
B9: Eterna 7709711 (Same State - Tryptophan B) (ssRNA)
RNA: UAUAUAGUGACGGCCGCCACUAUUGUGAUGUAGUUGUUAGAGUGAUGUUUUGUUGUUUGAUUUUGUAGGACCGGGUUAUAUGUUA
B10: Eterna 6423537 (Small Loop Exclusion NG 1) (ssRNA)
RNA: GAGUAGAUCCGAGGAUAUACAAUCCGGAAACGGUACAUGAGGAUCACCCAUGUAGAAGGCGGAUCUACAGGUACUAAAGUACCU
B11: Eterna 7682758 (Exclusion - Arginine A) (ssRNA)
RNA: AAUUUACAUUAAUUAUUUAAAGGUUCAGAAGGAGCGUGAAUUAACACAGGUAGGUCGCUGAGCGAGUGAUGUUCGCUAUAUACUA
B12: Eterna 6393566 (Inverted Small Loop Exclusion NG 3) (ssRNA)
RNA: AGCACGAAAGUGCAACGAUGUACGAGAAGGACAUGAGGAUCACCCAUGUUGCUGUAACUGCUUAUGUAGGAUAUCGUACAUCGA
B13: Eterna 15907 (Sensor v3, turn-off variant 2) (ssRNA)
RNA: AGUAACCGUCACGAAAGUGAUGGUUACGCAAGUAAAUGUACAUGAGGAUCACCCAUGUCCUCAUUUGCUCGUCUUAU
B14: Eterna 2 (No-binding control) (ssRNA)
RNA: AAAGCAUGACGCGCUUUCAAGCGUGGCGAGUAUAAA
B15: Eterna 7672999 (Same State - Tryptophan B) (ssRNA)
RNA: UGGUACAUGGCGGCCGCCACUUCACGUAAAAUAAAAACUUGAGGAUCACCCAAGUAAUAAGUUGGGAGGACCGGGUCAUGUACCU
B16: Eterna 7682723 (Same State - Arginine A) (ssRNA)
RNA: AAAUUCUUUUUUUUAUUUAACUUUUCAGAAGGAGCGUGGUAGUUCACAGGUAGGUCGCUGAAUUUUGGACUAGUGAUGUUAGUUA
B17: Eterna 7734297 (Exclusion - Theophylline B) (ssRNA)
RNA: GGCCGAUGGUGCGAUACCAGCUUGAGUGUACUGGCCAGGUACAUGAGGAUCACCCAUGUAAGCCCUUGGCAGCGCGUCAGAGGCC
B18: Eterna 6453430 (Inverted Small Loop Exclusion NG 3) (ssRNA)
RNA: AGGUAAGACUUAAUUGUGCUGGUGAGAAGGCAAAUGGUUGUGAUUAACAUGAGGAUCACCCAUGUUGAGGAUAUCAUCGGUAUC
B19: Eterna 12408 (Exclusion 4) (ssRNA)
RNA: CAUUUGUGAGGAUAUCAGGUGUGCUAGCGUACUGGUACAUCUGAGAAGGCACAUGAGGAUCACCCAUGUUUCUU
B20: Eterna 7685253 (Same State - Tryptophan B) (ssRNA)
RNA: AGACGCCAGUCGGCCGCCACUCACAGCAGUGAUGUUGCUGAAAAUCUAGAAGAGUGAUGUUCUUAGAGGACCGGGACUCCAGUCG
B21: Eterna 12456 (Exclusion 4) (ssRNA)
RNA: GUAAAGUGAGGAUAUGGUAAAUUAAUUAUUAAUUAAUUAAUCCAGAAGGCACAUGAGGAUCACCCAUGUAAUUG
B22: Eterna 12517 (Exclusion 2) (ssRNA)
RNA: AAUGGCUGAGGAUAUACACUCACGUCUAAAAGGUUCAAAUGACAUGAGGAUCACCCAUGUAGAAGGCAGCCCGA
B23: Eterna 12520 (Exclusion 2) (ssRNA)
RNA: AAACAGGGAGGAUAUACAUAGAUCCUCUAACCUAAUUGGUCACAUGAGGAUCACCCAUGUAGAAGGCCCUUAGG
B24: Eterna 7682834 (Same State - Tryptophan A) (ssRNA)
RNA: UGUCAUGGAAACAUGAACGUUGAUGUUCGACGAGGACCGGUACGGCCGCCACUCGAGUAAUAGUCAGUGAUGUUGACUUGUUUAA
B25: Eterna 6148811 (Same State NG 2) (ssRNA)
RNA: UGAAUCAAUACAGGAUAUGGUGACGCACAUGAGGAUCACCCAUGUCCGCAGCGUGCUCAGCACGCCCAGAAGGGUAUUGAUCCG
B26: Eterna 1541 (Same State - FMN A) (ssRNA)
RNA: AAGUGGGAACGGCCCAAUAAAGUGUUUGUCAAGGAUAUUAUUCACAUAAGAAGGUGACAGACCACCUCCGGAGUGAUGUUUUGGA
B27: Eterna 7670643 (Exclusion - Theophylline B) (ssRNA)
RNA: UGACAUUGCUCAGAUACCAGACGUGAGCAUCAGCCAUGUGCCAACAAGUACAAAAUAAAUGUCCCUUGGCAGCUGAGCAAUGUCU
B28: Eterna 6108976 (Same State NG 2) (ssRNA)
RNA: GUAGCAUACCGAGGAUAUUCAUAUAAUAAAUAAACAUGAGGACCACCCAUGUGGCGAAAGCCUUGGGAGAAGGCGGAAUGCUAC
B29: Eterna 7643338 (Exclusion - Arginine B) (ssRNA)
RNA: UUAUAUUAUCGAAGGAGCGUCACAUGAGGAUCACCCAUGUACAUGAGGAUCACCCAUGUGUGGCAGGUAGGUCGCGAUAUAUAAC
B30: Eterna 7681870 (Exclusion - Theophylline B) (ssRNA)
RNA: CCUAUCUCAUACGAUACCAGUCAACGAGUGAUGUUCGAAUAAAUAAAUUUGCCAAAUAAUGACCCUUGGCAGCGUAUGGGAUAGG
B31: Eterna 7712196 (Same State - FMN B) (ssRNA)
RNA: AGAGUUAUGCGAGGAUAUGCAGUUAGUACUCAAAGAGUACUAACGCAGAGUGAUGUUCUGUGAAACGCAGAAGGUGCAUAACUCA
B32: Eterna 1268 (Exclusion - Tryptophan B) (ssRNA)
RNA: AAGCCAUACUCGGCCGCCACUUACUUCGUUGCAGUGAUGUUGCACACGAAUCCGUCAUAGCAAAUAAGGACCGGGAGAUAUACCG
B33: Eterna 6398784 (Exclusion NG 1) (ssRNA)
RNA: CCUGCACCUCAAGGAUAUCCAGUCGAAACGACUGGAGAAGGUGAGGAUCACCCACCUAGCCUGACGAAAGUCAGGCAUGCAGGA
B34: Eterna 7684757 (Exclusion - Tryptophan B) (ssRNA)
RNA: AAUAAAAUCACGGCCGCCACUGAUUACCAUAUUAGGAGUGAUGUUCCUAUGACUAUAUAAUUUAACAGGACCGGGUGAAUAUUUA
B35: Eterna 6451279 (Small Loop Same State NG 3) (ssRNA)
RNA: ACAUGAGGAUCACCCAUGUAAAGCGAGGAUAUUUCACUGCACAUGAGGUUCGCCCAUGUUCUGCGGAAGAAGGUGCAAAUAAUU
B36: Eterna 3 (ShortRNAControl) (ssRNA)
RNA: UUUUCAGAACUUAUUU
B37: Eterna 7685224 (Exclusion - Theophylline B) (ssRNA)
RNA: AAUUUAUUAACUGAUACCAGACUUAAUUAAUUGUAAAUUACUAGUGAUGUUAGUGAUUCUGUCCCUUGGCAGCAGUAUUUAUUAA
B38: Eterna 6102128 (Same State NG 3) (ssRNA)
RNA: AAAACAUGAGGAUCACCCAUGUAAAUAUCGGUUAAUUGUUGUGAGGAUAUACUAAAUUUUAAGAAGUAGAAGGCACUGGGUACA
B39: Eterna 7739921 (Exclusion - Arginine B) (ssRNA)
RNA: UGAUAGGACAGAAGGAGCGGCAGUGAUGUUGCCAAAAGGGUAAGGUGUCAAAAGACACCCUGCCAGGUAGGUCGCUGUCCUAUCU
B40: Eterna 6147986 (Exclusion NG 1) (ssRNA)
RNA: GCAAUGUGAUAAGGAUAUCCAAUGGCAUCCCUAGGAGAAGGUAUCACAUGAGGAUCACCCAUGUGAAGGACGGGUUAUCGCAAA
B41: Eterna 7687231 (Exclusion - Arginine A) (ssRNA)
RNA: AAUGUACAAGUGAUGUUUGUACUUUCCGAAGGAGCGUCUAAUAAGACAGGUAGGUCGCGGAUUCUCUAAAUUAUCAGGUCAUUAA
B42: Eterna 7754813 (Same State - Tryptophan B) (ssRNA)
RNA: UAGUAGCUCUCGGCCGCCACUCCUCAGUGAUGUUGAGAUAUUAAGAGCCAAUUGGCUCAUAUAAAGAGGACCGGGAGAGCUACAU

Biological target: MS2 coat protein, dlFG mutant (Escherichia phage MS2, UniProt P03612, del68-81insG)
Test: 4 mM Mg2+; no ligand; RNA-MaP array; 100 mM Tris-HCl pH 7.5, 80 mM KCl, 4 mM MgCl2, 0.1 mg/mL BSA, 1 mM DTT, 0.01 mg/mL yeast tRNA, 0.01% Tween-20; protein 1.5 nM to 3 uM; 37 C (Table S3)
Settings: chain copies: 2; label: tethered by stalled RNA polymerase

Row | Binder | Kd [µM]
1 | B1 | 0.387
2 | B2 | > 3
3 | B3 | > 3
4 | B4 | > 3
5 | B5 | 0.253
6 | B6 | > 3
7 | B7 | > 3
8 | B8 | > 3
9 | B9 | > 3
10 | B10 | 0.00563
11 | B11 | > 3
12 | B12 | 0.00514
13 | B13 | 0.205
14 | B14 | > 3
15 | B15 | 0.019
16 | B16 | > 3
17 | B17 | 0.0106
18 | B18 | 0.5
19 | B19 | 0.0158
20 | B20 | > 3
21 | B21 | 0.0248

Row | Binder | Kd [µM]
22 | B22 | 0.103
23 | B23 | 0.0118
24 | B24 | > 3
25 | B25 | 0.817
26 | B26 | > 3
27 | B27 | 0.0166
28 | B28 | 1.05
29 | B29 | 0.226
30 | B30 | > 3
31 | B31 | > 3
32 | B32 | > 3
33 | B33 | 0.0144
34 | B34 | > 3
35 | B35 | 0.0826
36 | B36 | > 3
37 | B37 | > 3
38 | B38 | 0.0244
39 | B39 | > 3
40 | B40 | 0.0541
41 | B41 | > 3
42 | B42 | > 3
